# B1: VHH-DS-Cav1-4 (VHH)
# VHH: QVQLQESGGGLVQPGGSLRLSCAASGFTLDYYYIGWFRQAPGKEREAVSCISGSSGSTYYPDSVKGRFTISRDNAKNTVYLQMNSLKPEDTAVYYCATIRSSSWGGCVHYGMDYWGKGTQVTVSS
# B2: VHH-DS-Cav1-L66 (VHH)
# VHH: QVQLQESGGGLVQPGGSLRLSCAASGFTLDYYYIGWFRQAPGKEREGVSCISSSHGSTYYADSVKGRFTISRDNAKNTVYLQMNSLKPEDTAVYYCATVAVAHFRGCGVDGMDYWGKGTQVTVSS
# Key:
# [1] = target: F protein of RSV A2 virus (respiratory syncytial virus A2, UniProt P03420 26-574); experiment: cell-based or functional assay
# [2] = target: F protein of RSV B49 virus (respiratory syncytial virus B49); experiment: cell-based or functional assay
# Sequence of F protein of RSV A2 virus (P03420 26-574): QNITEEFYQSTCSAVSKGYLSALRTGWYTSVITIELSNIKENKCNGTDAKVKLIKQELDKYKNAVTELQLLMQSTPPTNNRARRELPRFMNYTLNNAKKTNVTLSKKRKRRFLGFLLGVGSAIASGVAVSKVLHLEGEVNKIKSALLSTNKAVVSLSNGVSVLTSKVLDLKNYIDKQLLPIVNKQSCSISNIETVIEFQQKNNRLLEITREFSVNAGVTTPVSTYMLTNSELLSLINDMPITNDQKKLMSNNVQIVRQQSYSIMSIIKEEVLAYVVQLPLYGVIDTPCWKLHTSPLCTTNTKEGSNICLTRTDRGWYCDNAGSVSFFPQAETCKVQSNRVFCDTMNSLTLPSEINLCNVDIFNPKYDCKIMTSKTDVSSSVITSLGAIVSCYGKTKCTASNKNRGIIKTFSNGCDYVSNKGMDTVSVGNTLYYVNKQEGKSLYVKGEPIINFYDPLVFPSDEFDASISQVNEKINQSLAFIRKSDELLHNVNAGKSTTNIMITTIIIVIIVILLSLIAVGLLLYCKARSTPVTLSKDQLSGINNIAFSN
Binder,IC50 of in vitro neutralization of RSV A2 (plaque reduction on Vero cells) [1] [nM],IC50 of neutralization of RSV B49 (plaque reduction on Vero cells) [2] [nM]
B1,0.021,0.015
B2,0.032,0.032

# From US20200102374A1 (VIB VZW, published 2020)
